Here are results for one substance from publication PMC5519134.

This assay deals with FZD2-CRD-Fc, recombinant human Frizzled 2 cysteine-rich domain, Fc-tagged (human). Kind of assay: BLI. (In general: Biolayer interferometry detects binding as a change in optical thickness at a sensor tip.)

Regarding “TcdB_(1-1830), truncated TcdB lacking the CROPs region (from UniProt P18177 1-1830) (domain or fragment)”, the Kd turned out to be 17 nM.

The Kd is the concentration at which binding is half-saturated.
